# Assay results published in US20040265963.
# T1: Tkip (tyrosine kinase inhibitor peptide), WLVFFVIFYFFR
# T1 chain: WLVFFVIFYFFR
# Molecular target: T1, Tkip (tyrosine kinase inhibitor …)
protein,measurement,value
Recombinant human JAK2 immobilized on agarose beads (protein) MGMACLTMTEMEGTSTSSIYQNGDISGNANSMKQIDPVLQVYLYHSLGKSEADYLTFPSGEYVAEEICIAASKACGITPVYHNMFALMSETERIWYPPNHVFHIDESTRHNVLYRIRFYFPRWYCSGSNRAYRHGISRGAEAPLLDDFVMSYLFAQWRHDFVHGWIKVPVTHETQEECLGMAVLDMMRIAKENDQTPLAIYNSISYKTFLPKCIRAKIQDYHILTRKRIRYRFRRFIQQFSQCKATARNLKLKYLINLETLQSAFYTEKFEVKEPGSGPSGEEIFATIIITGNGGIQWSRGKHKESETLTEQDLQLYCDFPNIIDVSIKQANQEGSNESRVVTIHKQDGKNLEIELSSLREALSFVSLIDGYYRLTADAHHYLCKEVAPPAVLENIQSNCHGPISMDFAISKLKKAGNQTGLYVLRCSPKDFNKYFLTFAVERENVIEYKHCLITKNENEEYNLSGTKKNFSSLKDLLNCYQMETVRSDNIIFQFTKCCPPKPKDKSNLLVFRTNGVSDVPTSPTLQRPTHMNQMVFHKIRNEDLIFNESLGQGTFTKIFKGVRREVGDYGQLHETEVLLKVLDKAHRNYSESFFEAASMMSKLSHKHLVLNYGVCVCGDENILVQEFVKFGSLDTYLKKNKNCINILWKLEVAKQLAWAMHFLEENTLIHGNVCAKNILLIREEDRKTGNPPFIKLSDPGISITVLPKDILQERIPWVPPECIENPKNLNLATDKWSFGTTLWEICSGGDKPLSALDSQRKLQFYEDRHQLPAPKWAELANLINNCMDYEPDFRPSFRAIIRDLNSLFTPDYELLTENDMLPNMRIGALGFSGAFEDRDPTQFEERHLKFLQQLGKGNFGSVEMCRYDPLQDNTGEVVAVKKLQHSTEEHLRDFEREIEILKSLQHDNIVKYKGVCYSAGRRNLKLIMEYLPYGSLRDYLQKHKERIDHIKLLQYTSQICKGMEYLGTKRYIHRDLATRNILVENENRVKIGDFGLTKVLPQDKEYYKVKEPGESPIFWYAPESLTESKFSVASDVWSFGVVLYELFTYIEKSKSPPAEFMRMIGNDKQGQMIVFHLIELLKNNGRLPRPDGCPDEIYMIMTECWNNNVNQRPSFRDLALRVDQIRDNMAG,"JAK2 autophosphorylation and JAK2 phosphorylation of IFNGR-1, in vitro kinase assay (32P autoradiography)",Tkip at 50 µM inhibited both the autophosphorylation of JAK2 as well as JAK2 phosphorylation of IFNGR-1
